Measurements published in paper PMC6294630.

Target: Wild-type placental protein 13/galectin-13 (Gal-13) (human) (UniProt Q9UHV8)

B1: Wild-type placental protein 13/galectin-13 (Gal-13) (natural protein)
chain: MSSLPVPYKLPVSLSVGSCVIIKGTPIHSFINDPQLQVDFYTDMDEDSDIAFRFRVHFGNHVVMNRREFGIWMLEETTDYVPFEDGKQFELCIYVHYNEYEIKVNGIRIYGFVHRIPPSFVKMVQVSRDISLTSVCVCN
**Q.** How did the hemagglutination of chicken erythrocytes, minimum agglutination concentration (MAC) turn out when B1 was run?
**A.** Its hemagglutination of chicken erythrocytes, minimum agglutination concentration (MAC) is 25 µg/mL.
